Data published in US20160194391A1 (AstraZeneca / MedImmune, published 2016).
Changes are numbered by the printed parent chain. Where “and” joins values, the source holds several entries; their conditions need not be identical. Equal values may be shown once. Each block holds one binder with its values, some of them ahead of it.

Tests used:
[1] = target: T1, human dimeric IL-23 (eBiosciences 34-8239) (human, UniProt P29460 23-328; Q9NPF7 20-189); experiment: cell-based or functional assay
T1 sequence (looked up) 1: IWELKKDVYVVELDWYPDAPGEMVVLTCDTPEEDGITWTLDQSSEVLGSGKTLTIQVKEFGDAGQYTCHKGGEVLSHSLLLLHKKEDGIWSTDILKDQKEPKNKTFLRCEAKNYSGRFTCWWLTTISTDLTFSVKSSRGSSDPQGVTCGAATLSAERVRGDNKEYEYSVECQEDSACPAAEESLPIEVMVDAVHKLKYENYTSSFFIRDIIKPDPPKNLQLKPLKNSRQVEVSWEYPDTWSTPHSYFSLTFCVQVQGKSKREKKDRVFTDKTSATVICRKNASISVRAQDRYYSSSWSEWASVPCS
T1 sequence (looked up) 2: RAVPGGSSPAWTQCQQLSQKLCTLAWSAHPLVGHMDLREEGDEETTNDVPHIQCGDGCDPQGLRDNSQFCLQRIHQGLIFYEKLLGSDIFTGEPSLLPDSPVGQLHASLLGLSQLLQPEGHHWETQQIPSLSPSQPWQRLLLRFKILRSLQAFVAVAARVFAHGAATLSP

IL-23 p40-p19-His [2] = target: T2, IL-23 p40-p19-His (human); experiment: ELISA on IL-23 p40-p19-His
T2 construct: Single-chain fusion coated on the IL-23 ELISA plates; also called p40:p19-6×HIS
T2 chain: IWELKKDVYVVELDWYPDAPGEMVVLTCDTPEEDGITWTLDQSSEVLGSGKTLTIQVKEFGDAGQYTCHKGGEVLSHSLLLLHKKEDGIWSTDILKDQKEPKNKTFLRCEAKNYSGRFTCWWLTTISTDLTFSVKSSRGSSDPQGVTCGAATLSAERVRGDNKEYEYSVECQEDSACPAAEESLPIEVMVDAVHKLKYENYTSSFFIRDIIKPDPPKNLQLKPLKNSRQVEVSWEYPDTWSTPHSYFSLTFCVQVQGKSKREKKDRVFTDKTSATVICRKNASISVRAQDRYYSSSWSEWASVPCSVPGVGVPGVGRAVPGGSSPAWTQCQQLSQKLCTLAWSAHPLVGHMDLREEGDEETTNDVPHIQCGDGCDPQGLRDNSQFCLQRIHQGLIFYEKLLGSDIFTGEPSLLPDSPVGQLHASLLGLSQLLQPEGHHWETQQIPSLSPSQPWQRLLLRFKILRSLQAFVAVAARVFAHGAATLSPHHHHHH

human IL-12 = target: T3, human IL-12 (human, UniProt P29459 23-219; P29460 23-328); experiment: cell-based or functional assay
T3 sequence (looked up) 1: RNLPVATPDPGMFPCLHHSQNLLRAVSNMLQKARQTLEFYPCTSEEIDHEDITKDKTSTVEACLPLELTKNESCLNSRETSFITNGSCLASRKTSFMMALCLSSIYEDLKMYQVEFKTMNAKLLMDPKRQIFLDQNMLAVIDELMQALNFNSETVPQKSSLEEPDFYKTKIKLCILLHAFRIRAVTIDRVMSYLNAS
T3 sequence (looked up) 2: T1 sequence (looked up) 1

3×FLAG-IL-6 = target: T4, 3×FLAG-IL-6 (human); experiment: SPR, 3×FLAG-IL-6 captured by anti-FLAG M2 on protein G, bispecific as analyte
T4 construct: it may hold the pre-pro-trypsin leader
T4 sequence (chain, as listed by the source limits assumed): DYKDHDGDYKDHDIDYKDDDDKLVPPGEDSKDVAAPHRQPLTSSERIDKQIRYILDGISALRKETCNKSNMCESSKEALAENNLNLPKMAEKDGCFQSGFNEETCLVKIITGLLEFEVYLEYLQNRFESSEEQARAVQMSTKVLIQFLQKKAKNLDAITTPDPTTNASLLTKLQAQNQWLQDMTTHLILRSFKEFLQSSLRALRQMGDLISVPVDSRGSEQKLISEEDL

monkey IL-12 (macaque) [3] = target: T5, monkey IL-12 (macaque) (macaque, UniProt P48091 23-219; P48095 23-328); experiment: cell-based or functional assay
T5 sequence (looked up) 1: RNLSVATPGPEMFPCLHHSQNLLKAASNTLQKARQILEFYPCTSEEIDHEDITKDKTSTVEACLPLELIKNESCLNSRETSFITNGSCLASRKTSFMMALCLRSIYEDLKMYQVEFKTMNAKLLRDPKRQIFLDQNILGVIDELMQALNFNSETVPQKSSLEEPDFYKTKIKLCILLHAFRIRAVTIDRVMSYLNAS
T5 sequence (looked up) 2: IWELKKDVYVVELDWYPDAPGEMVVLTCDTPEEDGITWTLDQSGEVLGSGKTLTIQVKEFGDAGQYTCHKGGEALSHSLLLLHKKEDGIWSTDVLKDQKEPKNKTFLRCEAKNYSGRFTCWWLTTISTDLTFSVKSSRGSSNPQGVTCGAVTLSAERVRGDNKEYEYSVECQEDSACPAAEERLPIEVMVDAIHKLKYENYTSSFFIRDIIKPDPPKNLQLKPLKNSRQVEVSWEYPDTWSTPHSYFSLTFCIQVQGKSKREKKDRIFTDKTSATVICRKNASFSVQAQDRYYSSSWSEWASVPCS

[4] = target: T1, human dimeric IL-23 (eBiosciences …); experiment: SPR, bispecific held on captured IL-6 (~240 RU), human dimeric IL-23 as analyte (3-25 nM)
Protocol: SPR of bispecific scFvs were carried out as previously described for measuring the anti-IL-6 moiety; however, protocol modifications were required in order to determine the binding kinetics of the anti-IL-23 scFv, 31A12. Briefly, IL-23 binding by the bispecific was performed by first immobilizing the bispecific with IL-6 as described, but at a constant density (˜240 RU). Binding and dissociation of a recombinant human dimeric IL-23 (34-8239, eBiosciences, San Diego, Calif.) was assayed in concentrations ranging from 3 to 25 nM using the same parameters detailed above.

[5] = target: T1, human dimeric IL-23 (eBiosciences …); experiment: cell-based or functional assay; remark: listed apart in the source
human IL-6 = human IL-6 (human, UniProt P05231 30-212); experiment: cell-based or functional assay
monkey IL-12 (macaque) [6] = target: T5, monkey IL-12 (macaque); experiment: cell-based or functional assay; remark: listed apart in the source
IL-23 p40-p19-His [7] = target: T2, IL-23 p40-p19-His; experiment: ELISA on IL-23 p40-p19-His (coated directly or through anti-His)
Protocol: For the indirect binding method anti-His antibody (Cat # A00613, GenScript Corp., New Jersey, USA) was added to the plates in 100 μl/well of PBS at 0.01-0.02 ug/ml. Plates were incubated 1 hour at 37C, or overnight at 4C. To block non-specific binding 100 μl/well PBS containing 10% goat serum (Cat #16210-072, Invitrogen, USA) was added to each well, after which plates were rinsed 5 times with de-ionized water. IL-23 p40-p19-His (SEQ ID 4) in 100 μl/well PBS/10% goat serum at 0.5 μg/ml was added and incubated for 1 hour at room temperature.
For the direct binding method IL-23 p40-p19-His (SEQ ID 4) was added to an ELISA plate in 100 μl PBS at 0.5 μg/ml. Plates were incubated 1 hour at 37C, or overnight at 4C. To block non-specific binding 100 μl/well PBS containing 10% goat serum (Cat #16210-072, Invitrogen, USA) was added to each well. Plates were incubated 1 hour at room temperature.
After IL-23 binding, plates were rinsed 5 times with de-ionized water. To each well was added 50 μl PBS/10% goat serum. Test samples were then added at 50 μl/well. Plates were incubated 1 hour at room temperature and were rinsed 5 times with de-ionized water. To each well was added 100 μl peroxidase-conjugated goat anti-rabbit IgG (Cat. #111-035-008, Jackson Immuno Research) diluted 1:5000 in PBS/10% goat serum. Plates were incubated 1 hour at room temperature, then washed 5 times with de-ionized water. TMB substrate (Thermo Scientific, Rockford, Ill., USA) was added at 100 μl/well. The reaction was stopped with 100 μl N H₂SO₄ (JT Baker, Phillipsburg, N.J., USA). Absorbance was measured at 450 nm using a Molecular Devices M2 plate reader.

B3: 31A12c-PEG-13A8c bispecific (bispecific antibody)
scFv 1: DIQLTQSPSFLSASVGDRVTITCQASEDIESYLAWYQQKPGKAPKLLIYSASTLTSGVPSRFSGSGSGTEFTLTISSLQPEDFATYYCLGADDTTTVFGGGTKVEIKGGGGSGGGGSGGGGSGGGGSEVQLVESGGGLVQPGGSLRLSCTASGFSLSSYWLTWVRQAPGKGLEWVGTIATSSTYYASWAKGRFTISRDNSKNTLYLQLNSLRAEDTAVYYCARGLTTDYDLDLWGQGTLVTVSS
scFv 2: DIQLTQSPSFLSASVGDRVTITCQASQSISNELSWYQQKPGKAPKLLIYRASTLTSGVPSRFSGSGSGTEFTLTISSLQPEDFATYYCQQGYNSNDVDNVFGGGTKVEIKGGGGSGGGGSGGGGSGGGGSEVQLVESGGGLVQPGGSLRLSCTVSGIDLSSYDLSWVRQAPGKGLEWVGYIYTDSSTWYANWAKGRFTISRDNSKNTLYLQLNSLRAEDTAVYYCARGSTDYAFDTRLDLWGQGTLVTVSS
modifications: C-terminal azidohomoalanine (Aha) joined through a linear 20 kDa PEG to the Aha of the other scFv
notes: also called 31A12c-20KPEG-13A8c; 13A8c-PEG-31A12c
- Kd (3×FLAG-IL-6): 0.215 nM
- koff (3×FLAG-IL-6): 5.14e-05 s⁻¹
- kon (3×FLAG-IL-6): 290000 M⁻¹ s⁻¹
- IC50 (read off the curve) (interferon-gamma from NK92 cells, OD450) (monkey IL-12 (macaque) [3]): ~10 ng/mL
- Kd [4]: 0.0918 nM
- koff [4]: 7.11e-05 s⁻¹
- kon [4]: 773000 M⁻¹ s⁻¹
- Anti IL-23 EC50, batch A [5]: 2.94 ng/mL
- Anti IL-23 EC50, batch B [5]: 1.19 ng/mL
- Anti IL-23 EC50, batch C [5]: 2.04 ng/mL
- Anti IL-6 EC50, batch A (human IL-6): 0.082 ng/mL
- Anti IL-6 EC50, batch B (human IL-6): 0.064 ng/mL
- Anti IL-6 EC50, batch C (human IL-6): 0.136 ng/mL
- IC50 (read off the curve) (monkey IL-12 (macaque) [6]): ~10 ng/mL and ~20 ng/mL

B4: 35H4 chimeric mAb (antibody, V domains shown)
VH: QSLEESGGRLVTPGGSLTLTCTVSGIDLSDYDMSWVRQAPGKGLEWIGIVYDIGTIYYAPWAEGRFTISKTSTTMDLKMSSLTTEDTATYFCATEAPGYSDGDIWGPGTLVTVSS
VL: LVMTQTPSSVSAAVGGTVTINCQASETVGNNNRLSWYQQKPGQPPKLLIYGAATLASGVPSRFKGSGSGAHFTLTISNVQREDVATYVCGGYKDSTDVGFGGGTELEILR
notes: Rabbit/human chimeric IgG (human IgG1, kappa); HEK293; also called 35H4 clone
- binding result (IL-23 p40-p19-His [7]): binds

B5: 34E11 chimeric mAb (antibody, V domains shown)
VH: QEQLKESGGGLVTPGGSLTLTCTVSGFSLSTYDINWVRQAPGKGLEWIGYIYRGSPYYADWAKGRFTISSTSTTVGLKITSPTTVDTATYFCTRNLYSVNVLWGPGTLVTVS
VL: LVMTQTPSSTSAAVGDTVTIKCQASQSISSRLAWYQQKPGQPPKLLIYSASTLASGVPSRFKGSGSGTDYTLTISGVQREDAATYYCLGSYSNTIRTFGAGTKVEIKR
notes: Rabbit/human chimeric IgG (human IgG1, kappa); HEK293; also called 34E11 clone
- binding result (IL-23 p40-p19-His [7]): binds
- EC50, inhibition of IL-23 induced IL-17 secretion by mouse spleen cells [1]: 0.05 ng/mL

Other lines, results leading:

- EC50: concentration necessary to inhibit bioactivity of 50 pg/ml of IL-6 [1]: 2.34 ng/mL
- binding result (IL-23 p40-p19-His [2]): binds
- IC50 (read off the curve) (interferon-gamma from NK92 cells, OD450) (human IL-12): ~2 ng/mL
B1: 4F3 chimeric mAb (antibody, V domains shown)
VH: QSVEESGGRLVTPGTPLTLTCAVSGFSLSGYTMIWVRQAPGEGLEWIGIISSSGNTYYASWVKGRFTISKTSTTVDLKMISPTTEDTATYFCARGSGAYISDYFNVWGPGTLVTVSS
VL: FELTQTPSSVEAAVEGTVTIKCQASQSIDSWLSWYQQKPGQPPKLLIYSASKLAPGVPSRFSGSGSGTQFTLTIGDLECADAATYYCQSYYDVNAGYGFGGGTEVVVVR
notes: Rabbit/human chimeric IgG (human IgG1, kappa); HEK293; also called mAb 4F3

- EC50: concentration necessary to inhibit bioactivity of 50 pg/ml of IL-6 [1]: 1.91 ng/mL
- binding result (IL-23 p40-p19-His [2]): binds
- IC50 (read off the curve) (interferon-gamma from NK92 cells, OD450) (human IL-12): ~0.9 ng/mL
B2: 5C5 chimeric mAb (antibody, V domains shown)
VH: QSVEESGGRLVTPGTPLTLTCTVSGFSLSSYTMIWVRQAPGEGLEWIGIISAGGSAYYASWVNGRFTISKTSTTVDLKMTSPTTGDTATYFCARGSGTYTSDYFNIWGPGTLVTVSS
VL: B1 VL with E15G, S33A, P55T, G75S, V93A, E104K
notes: Rabbit/human chimeric IgG (human IgG1, kappa); HEK293; also called mAb 5C5

- binding result (IL-23 p40-p19-His [7]): binds
- EC50, inhibition of IL-23 induced IL-17 secretion by mouse spleen cells [1]: 0.219 ng/mL
B6: 16C6 chimeric mAb (antibody, V domains shown)
VH: QSVEESGGRLVTPGTPLTLTCTVSGFSLNSYSMSWVRQAPGKGLEWIGVIGLGGSAYYASWAKGRFTISGASTTVDLKITSPTTEDTATYFCARATYSDDNIWGPGTLVTVSS
VL: DVVMTQTPSSTSAAVGGTVTIKCQASQSISSWLSWYQQKPGQRPKPLIVRASTLASGVPSRFKGNRSGTEYTLTISGVQREDAAAYYCLGGDGNVSNFGGGTKVVVVR
notes: Rabbit/human chimeric IgG (human IgG1, kappa); HEK293
